The values that follow come from patent US20150140014A1.

In assay [1] the target is c-Met on human cancer cells (MKN45 gastric cancer cells; NCI-H441 lung cancer cells) (human) (UniProt P08581). The experiment in a line: cell-based or functional assay.
Assay [2] addresses human c-Met protein (human) (UniProt P08581). The experiment in a line: SPR (Biacore), antibody immobilized on CM5 chip, human c-Met protein 0.39-100 nM injected. On the technique in general: Surface plasmon resonance follows binding to a sensor surface in real time, without labels.

human c-Met protein (human), sequence (P08581 25-932 limits assumed): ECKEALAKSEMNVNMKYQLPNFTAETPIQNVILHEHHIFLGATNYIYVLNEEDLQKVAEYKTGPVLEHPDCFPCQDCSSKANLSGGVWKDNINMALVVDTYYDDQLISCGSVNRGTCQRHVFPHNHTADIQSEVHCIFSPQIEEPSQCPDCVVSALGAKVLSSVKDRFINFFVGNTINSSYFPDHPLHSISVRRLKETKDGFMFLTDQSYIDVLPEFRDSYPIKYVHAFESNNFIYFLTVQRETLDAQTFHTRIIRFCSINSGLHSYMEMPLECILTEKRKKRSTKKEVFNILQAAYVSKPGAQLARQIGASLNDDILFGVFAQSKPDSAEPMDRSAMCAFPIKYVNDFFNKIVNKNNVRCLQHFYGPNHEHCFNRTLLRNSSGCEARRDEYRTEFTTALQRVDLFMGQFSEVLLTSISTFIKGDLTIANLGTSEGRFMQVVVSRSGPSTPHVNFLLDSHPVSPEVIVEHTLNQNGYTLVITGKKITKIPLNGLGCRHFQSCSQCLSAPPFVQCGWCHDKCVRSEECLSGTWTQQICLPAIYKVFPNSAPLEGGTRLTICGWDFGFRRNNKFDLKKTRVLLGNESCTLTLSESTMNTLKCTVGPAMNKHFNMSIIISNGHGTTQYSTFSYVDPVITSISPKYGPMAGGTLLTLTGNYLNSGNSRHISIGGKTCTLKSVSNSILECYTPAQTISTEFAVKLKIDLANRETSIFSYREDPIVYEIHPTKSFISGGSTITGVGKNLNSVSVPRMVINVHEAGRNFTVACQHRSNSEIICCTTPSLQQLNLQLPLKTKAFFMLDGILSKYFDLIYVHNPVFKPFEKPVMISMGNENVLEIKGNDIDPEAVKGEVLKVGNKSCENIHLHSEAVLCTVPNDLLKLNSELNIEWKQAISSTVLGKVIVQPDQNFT
c-Met on human cancer cells (MKN45 gastric cancer cells; NCI-H441 lung cancer cells) (human), sequence (P08581 25-1390): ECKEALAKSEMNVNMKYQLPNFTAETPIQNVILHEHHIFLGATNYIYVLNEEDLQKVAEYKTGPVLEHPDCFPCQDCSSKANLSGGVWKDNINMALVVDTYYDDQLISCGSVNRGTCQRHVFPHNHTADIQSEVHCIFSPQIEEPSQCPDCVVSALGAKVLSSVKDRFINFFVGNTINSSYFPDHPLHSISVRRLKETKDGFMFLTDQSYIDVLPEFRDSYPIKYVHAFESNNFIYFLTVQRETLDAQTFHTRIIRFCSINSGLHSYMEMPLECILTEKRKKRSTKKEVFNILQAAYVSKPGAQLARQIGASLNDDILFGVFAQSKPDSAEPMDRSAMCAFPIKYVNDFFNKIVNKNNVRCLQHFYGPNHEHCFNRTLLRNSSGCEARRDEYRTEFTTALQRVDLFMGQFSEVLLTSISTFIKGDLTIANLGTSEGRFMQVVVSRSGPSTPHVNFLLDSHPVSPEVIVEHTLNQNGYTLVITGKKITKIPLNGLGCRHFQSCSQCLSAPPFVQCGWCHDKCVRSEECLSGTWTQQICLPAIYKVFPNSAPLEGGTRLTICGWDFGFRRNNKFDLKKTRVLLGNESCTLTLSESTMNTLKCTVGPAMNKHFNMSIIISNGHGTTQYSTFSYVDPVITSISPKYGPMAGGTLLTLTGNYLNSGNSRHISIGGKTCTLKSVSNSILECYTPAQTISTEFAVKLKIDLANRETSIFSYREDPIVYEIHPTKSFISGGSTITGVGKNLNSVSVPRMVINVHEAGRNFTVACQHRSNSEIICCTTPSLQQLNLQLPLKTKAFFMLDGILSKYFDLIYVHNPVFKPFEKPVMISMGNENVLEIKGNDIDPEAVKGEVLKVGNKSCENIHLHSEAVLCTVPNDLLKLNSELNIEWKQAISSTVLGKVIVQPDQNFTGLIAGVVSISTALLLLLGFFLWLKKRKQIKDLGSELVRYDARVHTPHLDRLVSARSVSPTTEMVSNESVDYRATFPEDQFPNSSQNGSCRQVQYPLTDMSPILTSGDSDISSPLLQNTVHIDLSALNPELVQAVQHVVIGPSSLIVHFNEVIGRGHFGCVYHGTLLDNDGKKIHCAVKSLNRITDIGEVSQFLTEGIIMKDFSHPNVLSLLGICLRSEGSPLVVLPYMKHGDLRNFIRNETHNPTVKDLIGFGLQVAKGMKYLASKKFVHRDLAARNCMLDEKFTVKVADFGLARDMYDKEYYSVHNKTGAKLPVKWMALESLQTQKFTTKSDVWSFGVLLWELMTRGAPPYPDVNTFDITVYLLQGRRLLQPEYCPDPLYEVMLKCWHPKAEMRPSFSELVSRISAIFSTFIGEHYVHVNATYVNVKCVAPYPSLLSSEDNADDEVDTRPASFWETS

B1: huAbF46-H4-A1 (antibody, from a related filing, V domains shown)
VH: EVQLVESGGGLVQPGGSLRLSCAASGFTFTDYYMSWVRQAPGKGLEWLGFIRNKANGYTTEYSASVKGRFTISRDNSKNTLYLQMNSLRAEDTAVYYCARDNWFAYWGQGTLVTVSS
VL: DIQMTQSPSSLSASVGDRVTITCKSSQSLLASGNQNNYLAWHQQKPGKAPKMLIIWASTRVSGVPSRFSGSGSGTDFTLTISSLQPEDFATYYCQQSYSRPYTFGQGTKVEIKR
In assay [1], B1 yielded a BrdU assay on NCI-H441 cells (agonism), 10 ug/ml of 25% and a degree of degradation of c-Met (total c-Met ELISA, MKN45 cells, 5 ug/ml, 24 hours) of 37%. In assay [2], the Kd was determined as 60 pM, the koff stood at 4.53e-05 s⁻¹ and the kon was found to be 739000 M⁻¹ s⁻¹.

By Kd is commonly meant the concentration at which binding is half-saturated. High values mean a looser complex, low ones a tighter complex. Broadly, the koff is a measure of how fast the partners let go of each other. In general, kon refers to the rate constant with which the complex forms. A low value points to slower complex formation.
